Data: patent publication US20250339569A1 (3B PHARMACEUTICALS, published 2025)
Values belong to the binder of their own block, whether it stands above or below them. Starred links: 1 amine or outer side, 2 acyl side, 3 side chain; linkers in the order of their positions; H or OH if unused. Positions of bridges follow the written chain, without caps; N, C: chain ends. Non-standard residues stand in square brackets, D forms with d. Primed or numbered codes have the meaning given here. No end group written: not given here. ξ: configuration not given here. *: point of attachment. Aph(SaPr)″ = 4-amino-L-phenylalanine, ring amine acylated with 3-sulfamoylpropanoic acid, NS(=O)(=O)CCC(=O)Nc1ccc(C[C@H](N[*:1])C(=O)[*:2])cc1; Af3(MCprAc) = 3-aminophenylalanine with 1-methylcyclopropane-1-carbonyl on the ring amine, CC1(C(=O)Nc2cccc(C[C@H](N[*:1])C(=O)[*:2])c2)CC1; Aph(SaPr) = 4-amino-L-phenylalanine, ring amine acylated by 3-sulfamoylpropanoic acid, NS(=O)(=O)CCC(=O)Nc1ccc(C[C@H](N[*:1])C(=O)[*:2])cc1; Af3(HO-Succinyl) = 3-aminophenylalanine with succinyl (free acid) on the ring amine, O=C(CCC(=O)[*:3])Nc1cccc(C[C@H](N[*:1])C(=O)[*:2])c1; Af3(MSAc) = 3-aminophenylalanine with 2-methanesulfonylacetyl on the ring amine, CS(=O)(=O)CC(=O)Nc1cccc(C[C@H](N[*:1])C(=O)[*:2])c1; Af3(Iva) = 3-aminophenylalanine with isovaleryl on the ring amine, CC(C)CC(=O)Nc1cccc(C[C@H](N[*:1])C(=O)[*:2])c1; Af3(Prp) = 3-aminophenylalanine with propionyl on the ring amine, CCC(=O)Nc1cccc(C[C@H](N[*:1])C(=O)[*:2])c1; Phe(3-NHCO(CH2)3SO2NH2) = N[C@@H](Cc1cccc(NC(=O)CCCS(N)(=O)=O)c1)C(=O)O; APAc″ = 2-(4-(amino)piperidin-1-yl)acetic acid, NC1CCN(CC(=O)*)CC1; DOTA = O=C(O)CN1CCN(CC(=O)O)CCN(CC(=O)*)CCN(CC(=O)O)CC1; Phe(4-CF3) = N[C@@H](Cc1ccc(C(F)(F)F)cc1)C(=O)O; Trp(7-aza) = N[C@@H](Cc1c[nH]c2ncccc12)C(=O)O; ξTrp(7-Me) = Cc1cccc2c(CC(N)C(=O)O)c[nH]c12; PPAc = 4-carboxymethyl piperazine linker; ξTrp(1-Me) = Cn1cc(CC(N)C(=O)O)c2ccccc21; mXylylene = c1cc(C[*:1])cc(C[*:2])c1; tBuAla = CC(C)(C)C[C@H](N)C(=O)O; Cha = N[C@@H](CC1CCCCC1)C(=O)O; 3Amb = NCc1cccc(C(=O)O)c1; 4Amb = NCc1ccc(C(=O)O)cc1; 4Amc = not defined here; APAc = not defined here; Inp′ = not defined here; Cmp = not defined here; Dap = NC[C@H](N)C(=O)O

Legend:
[1] = biological target: Fc-fusion protein of human carbonic anhydrase IX (human, UniProt Q16790 38-414); assay: SPR, captured hCAIX-Fc; t1/2 category A: >15.0 min
Method: Stock solutions of test compounds were prepared by dissolving each compound in DMSO. DMSO stock solution were diluted 1:1000 in Running Buffer without DMSO. […] SPR binding analyses were performed in Single Cycle Kinetic (SCK) mode at 25° C.
For each test compound, SPR raw data in the form of resonance units (RU) were plotted as sensorgrams using the Biacore™ T200 control software. The signal from the blank sensorgram was subtracted from that of the test compound sensorgram (blank corrected). The blank corrected sensorgram was corrected for baseline drift by subtracting the sensorgram of a SCK run without the test compound (running buffer only). […] Raw data and fit results were imported as text files in IDBS. The pKD value (negative decadic logarithm of dissociation constant) was calculated in the IDBS excel template.

[2] = biological target: human carbonic anhydrase 9 (CAIX) (human, UniProt Q16790 38-459); assay: FACS competition on HT-29 cells, competitor tracer 3BP-2776; category A = pIC50 >8.0
Method: CAIX-expressing human HT-29 colorectal cancer cells (DSMZ, RRID: CVCL_0320) were cultured in McCoys's 5A modified medium (Biochrom, #F1015) including 10% fetal calf serum (FCS), 2 mM L-glutamine, 100 U/ml penicillin and 100 μg/mL streptomycin. Cells were detached with Accutase (Biolegend, #423201) and washed in FACS buffer (PBS including 1% FCS). Cells were diluted in FACS buffer to a final concentration of 500.000 cells per ml. 200 μL of the cell suspension were transferred to a u-shaped non-binding 96-well plate (Greiner) and cells were washed in ice-cold FACS buffer.
When biotinylated compounds were used an additional incubation step with 1 μg/mL APC-Streptavidin (Miltenyi; #130-106-791) in 50 μL FACS buffer for 30 minutes on ice was performed.
Cells were washed twice with ice-cold FACS buffer and analyzed in an Attune NxT flow cytometer (Thermo Fisher). Median fluorescence intensities (MFI) of the APC/Cy5-channel were calculated by Attune NxT software.

t1/2 (half-life of the complex, SPR) [1]: > 15 min
Binder: {DOTA-PPAc}-QCE[dP]D[Aph(SaPr)]LTWSC-NH2 (linker 2-11 via mXylylene) [3BP-4500]

pIC50 [2]: > 8 pic50
B1: 3BP-4261 (peptide)
peptide: {DOTA-4Amb}-DCE[dP]DWLTW[Dap]C-NH2
modifications: lactam 10-1; linker 2-11 via mXylylene
SMILES: CC(C)C[C@@H]1NC(=O)[C@H](Cc2c[nH]c3ccccc23)NC(=O)[C@H](CC(=O)O)NC(=O)[C@H]2CCCN2C(=O)[C@H](CCC(=O)O)NC(=O)[C@@H]2CSCc3cccc(c3)CSC[C@@H](C(N)=O)NC(=O)[C@H](CNC(=O)C[C@H](NC(=O)c3ccc(CNC(=O)CN4CCN(CC(=O)O)CCN(CC(=O)O)CCN(CC(=O)O)CC4)cc3)C(=O)N2)NC(=O)[C@H](Cc2c[nH]c3ccccc23)NC(=O)[C@H]([C@@H](C)O)NC1=O

t1/2 (half-life of the complex, SPR) [1]: > 15 min
Binder: {GaDOTA-PPAc}-QCE[dP]D[Phe(3-NHCO(CH2)3SO2NH2)]LTWSC-NH2 (linker 2-11 via mXylylene; also: gallium in DOTA, also called natGa-DPI-4452) [3BP-4529]

pIC50 [2]: > 8 pic50
Binder: {DOTA-APAc″}-VYCE[dP]DW[tBuAla]TWSC-NH2 (linker 3-12 via mXylylene) [3BP-4142]

pIC50 [2]: > 8 pic50
B2: 3BP-4260 (peptide)
peptide: {DOTA-3Amb}-DCE[dP]DWLTW[Dap]C-NH2
modifications: lactam 10-1; linker 2-11 via mXylylene
SMILES: CC(C)C[C@@H]1NC(=O)[C@H](Cc2c[nH]c3ccccc23)NC(=O)[C@H](CC(=O)O)NC(=O)[C@H]2CCCN2C(=O)[C@H](CCC(=O)O)NC(=O)[C@@H]2CSCc3cccc(c3)CSC[C@@H](C(N)=O)NC(=O)[C@H](CNC(=O)C[C@H](NC(=O)c3cccc(CNC(=O)CN4CCN(CC(=O)O)CCN(CC(=O)O)CCN(CC(=O)O)CC4)c3)C(=O)N2)NC(=O)[C@H](Cc2c[nH]c3ccccc23)NC(=O)[C@H]([C@@H](C)O)NC1=O

pIC50 [2]: > 8 pic50
Binder: {DOTA-APAc″}-VYCE[dP]DW[Cha]TWSC-NH2 (linker 3-12 via mXylylene) [3BP-4143]

t1/2 (half-life of the complex, SPR) [1]: > 15 min
B3: 3BP-4453 (peptide)
peptide: {DOTA}-QCE[dP]D[Phe(3-NHCO(CH2)3SO2NH2)]LTWSC-NH2
modifications: linker 2-11 via mXylylene
SMILES: CC(C)C[C@@H]1NC(=O)[C@H](Cc2cccc(NC(=O)CCCS(N)(=O)=O)c2)NC(=O)[C@H](CC(=O)O)NC(=O)[C@H]2CCCN2C(=O)[C@H](CCC(=O)O)NC(=O)[C@@H](NC(=O)[C@H](CCC(N)=O)NC(=O)CN2CCN(CC(=O)O)CCN(CC(=O)O)CCN(CC(=O)O)CC2)CSCc2cccc(c2)CSC[C@@H](C(N)=O)NC(=O)[C@H](CO)NC(=O)[C@H](Cc2c[nH]c3ccccc23)NC(=O)[C@H]([C@@H](C)O)NC1=O

pIC50 [2]: > 8 pic50
Binder: {DOTA-4Amc}-DCE[dP]DWLTW[Dap]C-NH2 (lactam 10-1; linker 2-11 via mXylylene; reading uncertain) [3BP-4258]

pIC50 [2]: > 8 pic50
Binder: {DOTA-APAc}-VYCE[dP]D[Phe(4-CF3)]LTWSC-NH2 (linker 3-12 via mXylylene; not fully specified; reading uncertain) [3BP-4139]

pIC50 [2]: > 8 pic50
B4: 3BP-4253 (peptide)
peptide: {DOTA}-DCE[dP]DWLTW[Dap]C-NH2
modifications: lactam 10-1; linker 2-11 via mXylylene
SMILES: CC(C)C[C@@H]1NC(=O)[C@H](Cc2c[nH]c3ccccc23)NC(=O)[C@H](CC(=O)O)NC(=O)[C@H]2CCCN2C(=O)[C@H](CCC(=O)O)NC(=O)[C@@H]2CSCc3cccc(c3)CSC[C@@H](C(N)=O)NC(=O)[C@H](CNC(=O)C[C@H](NC(=O)CN3CCN(CC(=O)O)CCN(CC(=O)O)CCN(CC(=O)O)CC3)C(=O)N2)NC(=O)[C@H](Cc2c[nH]c3ccccc23)NC(=O)[C@H]([C@@H](C)O)NC1=O

pIC50 [2]: > 8 pic50
Binder: {DOTA-APAc″}-DCE[dP]DWLTW[Dap]C-NH2 (lactam 10-1; linker 2-11 via mXylylene) [3BP-4254]

pIC50 [2]: > 8 pic50
Binder: {DOTA-Inp′}-DCE[dP]DWLTW[Dap]C-NH2 (lactam 10-1; linker 2-11 via mXylylene) [3BP-4256]

pIC50 [2]: > 8 pic50
Binder: {DOTA-APAc″}-VYCE[dP]D[Af3(HO-Succinyl)]LTWSC-NH2 (linker 3-12 via mXylylene) [3BP-4237]

pIC50 [2]: > 8 pic50
Binder: {DOTA-APAc″}-VYCE[dP]D[ξTrp(7-Me)]LTWSC-NH2 (linker 3-12 via mXylylene; not fully specified) [3BP-4158]

pIC50 [2]: > 8 pic50
Binder: {DOTA-PPAc}-DCE[dP]DWLTW[Dap]C-NH2 (lactam 10-1; linker 2-11 via mXylylene) [3BP-4255]

pIC50 [2]: > 8 pic50
Binder: {DOTA-APAc″}-VYCE[dP]D[ξTrp(1-Me)]LTWSC-NH2 (linker 3-12 via mXylylene; not fully specified) [3BP-4144]

pIC50 [2]: > 8 pic50
Binder: {DOTA-Cmp}-DCE[dP]DWLTW[Dap]C-NH2 (lactam 10-1; linker 2-11 via mXylylene; reading uncertain) [3BP-4259]

pIC50 [2]: > 8 pic50
Binder: {DOTA-APAc″}-VYCE[dP]D[Af3(Prp)]LTWSC-NH2 (linker 3-12 via mXylylene) [3BP-4235]

pIC50 [2]: > 8 pic50
Binder: {DOTA-APAc″}-VYCE[dP]D[Af3(Iva)]LTWSC-NH2 (linker 3-12 via mXylylene) [3BP-4236]

pIC50 [2]: > 8 pic50
Binder: {DOTA-APAc″}-VYCE[dP]DWLT[Trp(7-aza)]SC-NH2 (linker 3-12 via mXylylene) [3BP-4159]

pIC50 [2]: > 8 pic50
Binder: {DOTA-APAc″}-VYCE[dP]D[Af3(MSAc)]LTWSC-NH2 (linker 3-12 via mXylylene) [3BP-4242]

pIC50 [2]: > 8 pic50
Binder: {DOTA-APAc″}-VYCE[dP]D[Af3(MCprAc)]LTWSC-NH2 (linker 3-12 via mXylylene) [3BP-4234]

pIC50 [2]: > 8 pic50
B5: 3BP-4178 (peptide)
peptide: [dP]PVYCE[dP]DWLTWSC
modifications: linker 5-14 via mXylylene; not fully specified (bridges)
notes: Bracket use differs from the other compounds; the outer cycle is read as closing pro1 with Cys14

t1/2 (half-life of the complex, SPR) [1]: > 15 min
Binder: {DOTA}-QCE[dP]D[Aph(SaPr)″]LTWSC-NH2 (linker 2-11 via mXylylene; also: Ga complexed in DOTA) [3BP-4602]
